From patent EP4480965A1, “TRANSFERRIN RECEPTOR-BINDING MOLECULES, CONJUGATES THEREOF AND THEIR USES TO PREVENT OR TREAT CNS DISEASES” (Vect-Horus, priority 2023, dated 2024)

System: murine SOD1 mRNA
Test: CNS knock-down of SOD1 mRNA after systemic (SC or IV) administration (RT-qPCR)
Format: in vivo, C57Bl/6 mice
Details: SC QDx4 at 15 mg/kg (siRNA molar equivalent), one week after last dose
Protocol: VHH-siSOD1m-5'VP conjugates or heterodimeric VHH-hFc-siSOD1m-5'VP conjugates were generated and compared for their potential to trigger BBB-crossing and functional delivery in CNS tissues following systemic administration. Wild-type C57Bl/6 mice (4-8 per group) were administered with either four daily SC doses (QDx4) of unconjugated siSOD1m-5'VP or the C5-siSOD1m-5'VP conjugate at 15 mg/kg (siRNA molar equivalent), or three IV doses of the C5-hFc-siSOD1m-5'VP conjugate every two days (Q2Dx3) at 1.5 mg/kg (siRNA molar equivalent), compared to PBS injected mice. […] RNA samples were analyzed and dosed using a Fragment Analyzer RNA kit in a Fragment Analyzer system (Agilent). Relative RNA expression levels were quantified by RT-qPCR using the TaqMan™ Fast Universal PCR Master Mix (2X) no AmpErase™ LTNG kit (Applied Biosystems) and commercially available TaqMan™ probes for the target murine SOD1 and reference RpL13 and PUM1 genes (Applied Biosystems). Expression data were analyzed using the […]Cq method normalized to the expression of the reference RpL13 gene, for brain regions, or RpL13 and PUM1 genes for total brain, spinal cord, liver, kidney (multiplex qPCR), based on raw quantification cycle (Cq) values (Bustin et al.). The results are expressed as means ± standard error of the mean (SEM) and are presented as mRNA levels relative to the control animals injected with PBS. […]

B1: C5-siSOD1m-5'VP: TfR-binding VHH-siRNA conjugate wherein VHH is C5 (conjugate)
VHH: EVQLVESGGGVVQPGGSLKLSCVASGTDFSINFIRWYRQAPGKQREFVAGFTATGNTNYADSMKGRFTISRDNTKNAVYLQIDSLKPEDTAVYYCYMLDKWGQGTQVTVSSAAAEQKLISEEDLNGAAHHHHHHGS
For B1, which “SOD1 mRNA KD in total brain and spinal cord” value is on record?
Its value is 30-40%.
